Positions count from the first letter of the chain named. Where no end group is shown, it is not given here. [ ]: non-standard residue; d: D form. Ahx = NCCCCCC(=O)O
Tests used:
[1] = target: bovine serum albumin (BSA) (bovine) (UniProt P02769); assay: luminescence titration, selectivity assay
[2] = target: T1, Wild type EBNA1 protein (379-641 a.a.) fusing with glutathione S-transferase (Epstein-Barr virus, UniProt P03211 379-641); assay: luminescence titration in PBS buffer
T1 construct: Expressed in E. coli (BL21), purified on glutathione sepharose; also called WT-EBNA1; WT EBNA1; not shown: glutathione S-transferase (GST) fusion partner
T1 sequence: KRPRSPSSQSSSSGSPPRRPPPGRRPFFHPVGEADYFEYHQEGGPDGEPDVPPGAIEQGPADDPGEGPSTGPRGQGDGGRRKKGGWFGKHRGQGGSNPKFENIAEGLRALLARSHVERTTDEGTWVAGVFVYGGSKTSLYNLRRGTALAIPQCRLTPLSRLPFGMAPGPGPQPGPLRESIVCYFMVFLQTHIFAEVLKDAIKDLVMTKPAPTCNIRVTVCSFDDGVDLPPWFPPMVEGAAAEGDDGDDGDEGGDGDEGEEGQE

[3] = target: T1, Wild type EBNA1 protein (379-641 a.a.) …; assay: luminescence titration in PBS, same conditions as L2P4
[4] = target: T1, Wild type EBNA1 protein (379-641 a.a.) …; assay: luminescence titration in PBS, double logarithm regression
[5] = target: T2, EBNA1 as present in the nucleus of EBV-positive cells (C666-1, NPC43, Raji) (Epstein-Barr virus, UniProt P03211 1-641); assay: cell-based or functional assay
T2 sequence: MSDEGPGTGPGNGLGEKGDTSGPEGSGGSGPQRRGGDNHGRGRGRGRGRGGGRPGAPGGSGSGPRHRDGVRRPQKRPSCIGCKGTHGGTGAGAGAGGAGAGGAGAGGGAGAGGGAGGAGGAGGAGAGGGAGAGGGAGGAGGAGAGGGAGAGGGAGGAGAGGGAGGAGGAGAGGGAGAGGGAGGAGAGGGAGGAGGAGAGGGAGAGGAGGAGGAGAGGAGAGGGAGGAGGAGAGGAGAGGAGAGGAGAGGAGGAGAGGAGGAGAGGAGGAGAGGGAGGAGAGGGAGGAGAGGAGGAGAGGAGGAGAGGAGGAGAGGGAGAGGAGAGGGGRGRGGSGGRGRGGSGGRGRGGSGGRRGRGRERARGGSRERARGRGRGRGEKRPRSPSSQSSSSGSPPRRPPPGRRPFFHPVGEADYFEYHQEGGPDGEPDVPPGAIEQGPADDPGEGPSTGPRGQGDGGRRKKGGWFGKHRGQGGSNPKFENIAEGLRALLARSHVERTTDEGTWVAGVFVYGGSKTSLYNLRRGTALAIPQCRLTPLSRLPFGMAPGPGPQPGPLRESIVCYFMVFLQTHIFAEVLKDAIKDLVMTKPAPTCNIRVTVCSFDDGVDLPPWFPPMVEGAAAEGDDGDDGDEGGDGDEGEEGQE

[6] = target: T3, EBNA1-Y561A (EBNA1 379-641 GST fusion with point mutation Y561A) (Epstein-Barr virus, UniProt P03211 379-641); assay: luminescence titration, selectivity assay
T3 construct: Made by site-directed mutagenesis of the WT construct; not shown: glutathione S-transferase (GST) fusion partner
T3 sequence: T1 sequence with Y183A

[7] = target: T4, EBNA1-M563A (EBNA1 379-641 GST fusion with point mutation M563A) (Epstein-Barr virus, UniProt P03211 379-641); assay: luminescence titration, selectivity assay
T4 construct: Made by site-directed mutagenesis of the WT construct; not shown: glutathione S-transferase (GST) fusion partner
T4 sequence: T1 sequence with M185A

[8] = target: T5, EBNA1-F565A (EBNA1 379-641 GST fusion with point mutation F565A) (Epstein-Barr virus, UniProt P03211 379-641); assay: luminescence titration, selectivity assay
T5 construct: Made by site-directed mutagenesis of the WT construct; not shown: glutathione S-transferase (GST) fusion partner
T5 sequence: T1 sequence with F187A

[9] = target: T6, EBNA1-3A (EBNA1 379-641 GST fusion with YFMVF mutated to FFAVA) (Epstein-Barr virus, UniProt P03211 379-641); assay: luminescence titration, selectivity assay
T6 construct: also called EBNA1-3A mutant; mutant EBNA1; not shown: glutathione S-transferase (GST) fusion partner
T6 sequence: T1 sequence with Y183F, M185A, F187A

Sequence of bovine serum albumin (BSA) (bovine) (P02769 25-607 limits assumed): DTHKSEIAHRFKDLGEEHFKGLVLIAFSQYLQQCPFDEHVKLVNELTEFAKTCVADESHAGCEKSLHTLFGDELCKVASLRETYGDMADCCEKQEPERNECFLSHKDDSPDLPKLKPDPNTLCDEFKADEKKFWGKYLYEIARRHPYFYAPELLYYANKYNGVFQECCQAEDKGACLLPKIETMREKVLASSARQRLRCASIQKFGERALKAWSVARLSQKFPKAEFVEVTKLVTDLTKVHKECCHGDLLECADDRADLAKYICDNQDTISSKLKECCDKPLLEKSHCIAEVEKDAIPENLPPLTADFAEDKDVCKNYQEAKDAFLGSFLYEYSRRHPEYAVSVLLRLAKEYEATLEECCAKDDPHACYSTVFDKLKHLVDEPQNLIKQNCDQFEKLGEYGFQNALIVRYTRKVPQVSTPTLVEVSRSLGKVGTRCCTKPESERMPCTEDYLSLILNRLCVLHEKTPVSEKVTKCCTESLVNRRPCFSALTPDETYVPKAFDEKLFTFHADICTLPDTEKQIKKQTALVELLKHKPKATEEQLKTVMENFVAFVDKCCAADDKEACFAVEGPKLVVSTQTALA

L2P4 (peptide conjugate: L2, 4-(4-(diethylamino)styryl)-N-carboxymethylpyridinium, coupled through an amide bond to peptide P4, CAhxYFMVFGGRrRK)
log Kassoc [1]: 4.7 log Kassoc

B1: L2P2 (peptide conjugate: L2 coupled to peptide P2, YFMVF) (peptide)
peptide: YFMVF-NH2
modifications: not fully specified (N-terminus); also: L2 dye coupled to the peptide, site not given here
notes: Fluorescent dye-peptide conjugate
binding result [2]: no binding

B2: L2P3 (peptide conjugate: L2 coupled to peptide P3, CAhxRrRKGGYFMVF) (peptide)
peptide: C[Ahx]R[dR]RKGGYFMVF-NH2
modifications: not fully specified (N-terminus); printed as CAhxRrRKGGYFMVF; also: L2 dye coupled to the peptide, site not given here
notes: as for B1
increase in emission intensity (fold) [3]: 4.7 fold | binding ratio [4]: 1 probe : WT-EBNA1

B3: L2P4 (peptide conjugate: L2, 4-(4-(diethylamino)styryl)-N-carboxymethylpyridinium, coupled through an amide bond to peptide P4, CAhxYFMVFGGRrRK) (peptide)
peptide: CXYFMVFGGRXRK
modifications: L2 (4-(4-(diethylamino)styryl)-N-carboxymethylpyridinium) coupled to the peptide through an amide bond; Ahx = 6-aminohexanoic acid (position 2); r = D-arginine (position 11); synthesised on Rink amide resin
notes: Fluorescent dye-peptide conjugate; also called formula (I)
in vitro emission intensity in the nucleus of EBV-positive C666-1 cells (confocal microscopy), L2P4 against L2P3 [5]: 3 fold over L2P3 | log Kassoc [6]: 5.1 log Kassoc | log Kassoc [7]: 3.6 log Kassoc | log Kassoc [8]: 4.3 log Kassoc | log Kassoc [9]: 3.9 log Kassoc

— patent US20190060394A1 (HONG KONG BAPTIST UNIVERSITY, published 2019)
